Molecular target: biotinylated TGPAvi (Galaxea fascicularis (engineered …, biotin on the Avi-tag (enzymatic biotinylation with BirA)))
Test: BLI

Kd: 26 nM
koff: 0.014 s⁻¹
kon: 530000 M⁻¹ s⁻¹
B1: Sb32 (VHH)
VHH: QVQLVESGGGLVQAGGSLRLSCAASGFPVGQQKMTWYRQAPGKEREWVAAITSAGWFTHYADSVKGRFTISRDNAKNTVYLQMNSLKPEDTAVYYCTVKVGAEYAGQGTQVTVSA

Source: publication doi:10.64898/2025.12.23.696179 (bioRxiv, 2025)
